From article PMC7666158 (2020)
Changes are numbered by the printed parent chain. Numbers in names are those of the source. Each block holds one binder with its values, some of them ahead of it.

How the values were obtained:
[1] = molecular target: T1, JNK1-dc20 (JNK1 with the C-terminal 20 residues truncated) (human, UniProt P45983 1-427); test: FP
[2] = molecular target: T1, JNK1-dc20 (JNK1 with the C-terminal 20 …); test: FP; EDTA
[3] = molecular target: T1, JNK1-dc20 (JNK1 with the C-terminal 20 …); test: ITC; 2 mM EDTA
[4] = molecular target: T1, JNK1-dc20 (JNK1 with the C-terminal 20 …); test: ITC

T1 sequence (P45983 other isoform, or with tags, fused parts or gaps): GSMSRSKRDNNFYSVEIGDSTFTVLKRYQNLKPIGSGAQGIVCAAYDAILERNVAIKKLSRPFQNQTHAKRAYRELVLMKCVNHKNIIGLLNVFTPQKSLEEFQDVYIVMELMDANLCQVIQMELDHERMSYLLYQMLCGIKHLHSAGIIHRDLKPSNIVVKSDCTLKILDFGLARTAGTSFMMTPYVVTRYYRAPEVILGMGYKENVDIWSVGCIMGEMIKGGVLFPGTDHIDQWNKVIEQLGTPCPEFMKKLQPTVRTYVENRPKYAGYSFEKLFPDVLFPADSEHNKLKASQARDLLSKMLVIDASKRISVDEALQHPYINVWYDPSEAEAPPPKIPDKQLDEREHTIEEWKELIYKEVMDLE

- Kd [1]: 3.5 µM
- Kd [2]: 53 µM
B1: MBP-ATF2(19–100) (domain or fragment)
chain: MSDDKPFLCTAPGCGQRFTNEDHLAVHKHKHEMTLKFGPARNDSVIVADQTPTPTRFLKNCEEVGLFNELASPFENEFKKAS

- Kd [1]: 3.8 µM
- Kd [2]: 4.9 µM
B2: MBP-c-Jun(1–78) (domain or fragment)
chain: MTAKMETTFYDDALNASFLPSESGPYGYSNPKILKQSMTLNLADPVGSLKPHLRAKNSDLLTSPDVGLLKLASPELER

- Kd [1]: 55 µM
B3: MBP-c-Jun(1–78) K35E (domain or fragment)
chain: B2 chain with K35E

- Kd [3]: 48 µM
- Kd [4]: 5.1 µM
Binder: MSDDKPFLCTAPGCGQRFTNEDHLAVHKHKHEMTLKFGPA (domain or fragment) [ATF2(19–58)-His6 (MBP removed, for ITC)]

- Kd [1]: 4.5 µM
Binder: MSDDKPFLCTAPGCGQRFTNEDHLAVHKHKHEMTLKFGPA (domain or fragment) [ATF2(19–58) as used in the competitive fluorescence polarisation assay]
